Measurements from patent US20070178531A1 (BIOCHECK, published 2007).

What was measured:
[1] = molecular target: T1, Human Id2: Histidine (human, UniProt Q02363 1-134, limits assumed); assay: ELISA, Ab 0.100 µg/ml
T1 construct: Fusion protein made in E. coli from vector pGW07; also called h-Id2: His; not shown: His tag
T1 sequence (looked up): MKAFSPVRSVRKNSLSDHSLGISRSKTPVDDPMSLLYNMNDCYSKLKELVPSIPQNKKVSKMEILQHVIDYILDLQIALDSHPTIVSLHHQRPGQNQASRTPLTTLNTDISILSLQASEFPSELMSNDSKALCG
Procedure: (§1) The rabbit monoclonal anti-human Id3 (clone #3-3) and the rabbit monoclonal anti-mouse/human Id3 (clones #6-1, 16-1, 17-3, and 42-1) produced in Example 6 were tested reactivity against the following antigens: mouse Id1:His, human Id1:His, mouse Id2:His, human Id2:His, mouse Id3:His, human Id3:His, mouse Id4:His, human Id4:His and GST.
(§2) 1. Microtiter wells (prepared in accordance with Example 6) were coated (0.1 μg/well) with mouse Id1:His, human Id1:His, human Id2:His, human Id3:His, and 1.0 μg/well with GST. [0155] 2. Antibody Diluent: 0.25% (w/v) BSA in 0.015M KPO₄ Buffer, 0.85% (w/v) NaCl, 0.1% (w/v) NaN₃, pH=7.40 [0156] 3. Rabbit monoclonal anti-human Id3 (clone #3-3) prepared in Example 7 was diluted to […] with the antibody diluent. […] 4. Rabbit monoclonal anti-mouse/human Id3 (clones #6-1, 16-1, 17-3, 42-1) prepared in Example 7 was diluted to 0.005, 0.010, 0.025, 0.05, 0.10, 0.25, and 0.50 μg/ml with the antibody diluent. […] 5. Conjugate Diluent: 50% (v/v) which consists of an aqueous solution containing Fetal Bovine Serum in 0.05 M Tris, 1% (v/v) Proclin-300, pH 7.6. [0159] 6. Conjugate: Goat anti-rabbit IgG (H+L)-HRP conjugate. [0160] 7. TMB reagent. […] 8. Stop solution (1 N HCI). Method
(§3) 1. Dispense 100 μL of antibody diluent, diluted rabbit monoclonal human Id3, and mouse/human Id3 hybridoma supernatants into appropriate wells. […] 2. Incubate at room temperature with mechanical shaking at 750 rpm for 90 minutes. [0165] 3. Remove the incubation mixture by flicking plate content into an appropriate waste container followed by rinsing the wells 5 times with distilled water. [0166] 4. Strike the wells sharply onto absorbent paper or paper towels to remove all residual water droplets. [0167] 5. Dispense 100 μL of 1:50,000 Goat Anti-Rabbit IgG-HRP Conjugate Reagent into each well. Gently mix for 5 seconds. [0168] 6. Incubate at room temperature with mechanical shaking at 750 rpm for 90 minutes. [0169] 7. Repeat procedures 3 and 4. [0170] 8. Dispense 100 μL of TMB Reagent into each well. Gently mix for 5 seconds. [0171] 9. Incubate at room temperature with mechanical shaking at 750 rpm for 20 minutes. […] 10.

[2] = molecular target: T2, glutathione S-transferase (GST) (UniProt P08515 1-218 = GST); assay: ELISA, Ab 0.100 µg/ml
T2 construct: also called carrier protein GST
Procedure: as §1, §2, §3

[3] = molecular target: T3, Human Id1: Histidine (human, UniProt P41134 1-155, limits assumed); assay: ELISA, Ab 0.100 µg/ml
T3 construct: Fusion protein made in E. coli from vector pGW07; also called h-Id1: his; not shown: His tag
T3 sequence (looked up): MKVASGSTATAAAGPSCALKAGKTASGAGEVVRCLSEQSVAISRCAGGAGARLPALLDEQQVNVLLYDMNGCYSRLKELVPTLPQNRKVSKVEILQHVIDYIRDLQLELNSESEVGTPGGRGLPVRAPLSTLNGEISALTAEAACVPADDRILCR
Procedure: as §1, §2, §3

[4] = molecular target: T4, Mouse Id1: Histidine (mouse, UniProt P20067-2 1-148, limits assumed); assay: ELISA, Ab 0.100 µg/ml
T4 construct: Fusion protein made in E. coli from vector pGW07; also called m-Id1-His; not shown: His tag
T4 sequence (looked up): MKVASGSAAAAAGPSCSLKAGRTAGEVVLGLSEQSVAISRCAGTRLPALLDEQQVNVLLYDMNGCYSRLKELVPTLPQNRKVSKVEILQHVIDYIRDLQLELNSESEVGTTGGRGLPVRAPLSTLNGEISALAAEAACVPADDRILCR
Procedure: as §1, §2, §3

[5] = molecular target: T1, Human Id2: Histidine; assay: ELISA, Ab 0.500 µg/ml
Procedure: as §1, §2, §3

[6] = molecular target: T2, glutathione S-transferase (GST); assay: ELISA, Ab 0.500 µg/ml
Procedure: as §1, §2, §3

[7] = molecular target: T4, Mouse Id1: Histidine; assay: ELISA, Ab 0.500 µg/ml
Procedure: as §1, §2, §3

[8] = molecular target: T5, Mouse Id2: Histidine (mouse, UniProt P41136 1-134, limits assumed); assay: ELISA on coated wells, summary
T5 construct: Fusion protein made in E. coli from vector pGW07; also called m-Id2: His; not shown: His tag
T5 sequence (looked up): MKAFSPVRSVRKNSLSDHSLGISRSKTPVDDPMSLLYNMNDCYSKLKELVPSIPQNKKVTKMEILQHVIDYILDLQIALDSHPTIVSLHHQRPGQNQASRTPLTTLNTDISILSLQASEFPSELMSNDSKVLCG

[9] = molecular target: T4, Mouse Id1: Histidine; assay: ELISA on coated wells, summary
[10] = molecular target: T6, Mouse Id3: Histidine (mouse, UniProt P41133 1-119); assay: ELISA, Ab 0.100 µg/ml
T6 construct: Fusion protein made in E. coli from vector pGW07; also called m-Id3: His; Mouse Id3 (coated wells); not shown: His tag
T6 sequence: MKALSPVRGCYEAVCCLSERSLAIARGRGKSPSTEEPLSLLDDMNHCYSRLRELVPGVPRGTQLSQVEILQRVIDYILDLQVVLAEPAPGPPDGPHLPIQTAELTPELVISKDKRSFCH
Procedure: as §1, §2, §3

[11] = molecular target: T7, Human Id3: Histidine (human, UniProt Q02535 1-119 at identity 1.00)); assay: ELISA, Ab 0.100 µg/ml
T7 construct: Fusion protein made in E. coli from vector pGW07; also called h-Id3: His; Human Id3 (coated wells); not shown: His tag
T7 chain: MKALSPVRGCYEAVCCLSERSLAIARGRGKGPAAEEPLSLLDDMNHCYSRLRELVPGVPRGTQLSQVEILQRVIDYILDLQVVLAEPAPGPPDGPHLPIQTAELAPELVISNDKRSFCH
Procedure: as §1, §2, §3

T2 sequence (P08515 whole entry): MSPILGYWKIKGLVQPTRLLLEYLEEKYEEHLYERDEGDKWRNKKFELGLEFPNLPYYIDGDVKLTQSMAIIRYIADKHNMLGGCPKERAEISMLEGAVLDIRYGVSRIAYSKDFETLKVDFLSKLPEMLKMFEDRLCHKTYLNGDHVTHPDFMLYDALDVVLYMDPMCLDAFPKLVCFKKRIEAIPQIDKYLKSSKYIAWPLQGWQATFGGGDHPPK

B1: rabbit monoclonal anti-human Id3, clone #BCH-4/#3-3 (antibody, V domains shown)
VH: QSVEESGGRLVTPGTPLTLTCTVSGIDLSSYAMSWVRQAPGKGLEWIGVIFPSNNVYYASWAKGRFTISKTSTTVDLKITSPTTEDTATYFCASMGAFDSWGPGTLVTVSS
VL: QVLTQTPSPVSAAVGGTVTINCQASQSIYNDNDLAWFQQKPGQPPKLLIYDASTLTSGVPSRFKGSGSGTQFTLTISDLDCDDAATYYCAARYSGNIYGFGGGTEVVVK
notes: Rabbit IgG from a rabbit hybridoma; also called h Id3 MoAb 3-3
A450 [1]: 0.048 A450 | A450 [2]: 0.048 A450 | A450 [3]: 0.047 A450 | A450 [4]: 0.047 A450 | A450 [5]: 0.047 A450 | A450 [6]: 0.05 A450 | A450 [7]: 0.05 A450

B2: rabbit monoclonal anti-mouse/human Id3, clone #BCH-4/#16-1 (antibody, V domains shown)
VH: QSVEESGGRLVTPGTPLTLTCTASGFSLSSYYIHWVRQAPGKALEWIGYISDGGTTYYASWAKGRFTISKTSSTTVDLKMTSLTTEDTATYFCARQGFNIWGPGTLVTVSL
VL: AVLTQTPSPVSAAVGGTVTISCQSSQSVYNNNWLSWFQQKSGQPPKLLIYETSKLESGVPSRFKGSGSGTQFTLTIIDVQCDDAATYYCLGGYWTTSDNNIFGGGTEVVVK
notes: Rabbit IgG from a rabbit hybridoma; also called m/h Id3 MoAb 16-1
Cross-reactivity (%) [8]: < 1% | Cross-reactivity (%) [9]: < 1% | A450 [10]: 2.28 A450 | A450 [1]: 0.048 A450 | A450 [11]: 1.99 A450 | A450 [2]: 0.049 A450 | A450 [3]: 0.047 A450 | A450 [4]: 0.047 A450 | A450 [5]: 0.058 A450 | A450 [6]: 0.053 A450 | A450 [7]: 0.047 A450

B3: rabbit monoclonal anti-mouse/human Id3, clone #BCH-4/#17-3 (antibody, V domains shown)
VH: QSVEESGGRLVTPGTPLTLTCTASGFSLSNVYIHWVRQAPGKGLEWIGYISDGDTARYATWAKGRFTISKTSSTTVNLKMTSLTTEDTATYFCARQGFNIWGPGTLVTVSL
VL: AVLTQTPSPVSAAVGGTVSISCQSSQSVWNNNWLSWFQQKPGQPPKLLIYETSKLESGVPSRFKGSGSGTQFTLTISDVQCDDAATYYCLGGYWTTSDNNVFGGGTEVVVK
notes: Rabbit IgG from a rabbit hybridoma; also called m/h Id3 MoAb 17-3; BCH-3/#17-3
Cross-reactivity (%) [8]: < 1% | Cross-reactivity (%) [9]: < 1% | A450 [10]: 2.91 A450 | A450 [1]: 0.048 A450 | A450 [11]: 2.6 A450 | A450 [2]: 0.052 A450 | A450 [3]: 0.048 A450 | A450 [4]: 0.051 A450 | A450 [5]: 0.053 A450 | A450 [6]: 0.053 A450 | A450 [7]: 0.06 A450

B4: rabbit monoclonal anti-mouse/human Id3, clone #BCH-4/#6-1 (antibody, V domains shown)
VH: QSVEESGGRLVTPGTPLTLTCTASGFSLSNVYIHWVRQAPGKGLEWIGYISDGDTARYATWAKGRFTISKTSSTTVNLKMTSLTTEDTATYFCARQGFNIWGPGTLVTVSL
VL: AVLTQTPSPVSAAVGGTVSISCQSSQSVWNNNWLSWFQQKPGQPPKLLIYETSKLESGVPSRFKGSGSGTQFTLTISDVQCDDAATYYCLGGYWTTSDNNVFGGGTEVVVK
notes: Rabbit IgG from a rabbit hybridoma; also called m/h Id3 MoAb 6-1
Cross-reactivity (%) [8]: < 1% | Cross-reactivity (%) [9]: < 1% | A450 [10]: 2.56 A450 | A450 [1]: 0.049 A450 | A450 [11]: 2.36 A450 | A450 [2]: 0.047 A450 | A450 [3]: 0.049 A450 | A450 [4]: 0.049 A450 | A450 [5]: 0.063 A450 | A450 [6]: 0.054 A450 | A450 [7]: 0.051 A450

B5: rabbit monoclonal anti-mouse/human Id3, clone #BCH-4/#42-1 (antibody, V domains shown)
VH: QSVEESGGRLVTPGTPLTLTCTASGFSLSSYYIHWVRQAPGKALEWIGYISDGGTTYYASWAKGRFTISKTSSTTVDLKMTSLTTEDTATYFCARQGFNIWGPGTLVTVSL
VL: AVLTQTPSPVSAAVGGTVTISCQSSQSVYNNNWLSWFQQKSGQPPKLLIYETSKLESGVPSRFKGSGSGTQFTLTIIDVQCDDAATYYCLGGYWSTSDNNIFGGGTEVVVK
notes: Rabbit IgG from a rabbit hybridoma; also called m/h Id3 MoAb 42-1
Cross-reactivity (%) [8]: < 1% | Cross-reactivity (%) [9]: < 1% | A450 [10]: 2.87 A450 | A450 [1]: 0.046 A450 | A450 [11]: 2.6 A450 | A450 [2]: 0.049 A450 | A450 [3]: 0.047 A450 | A450 [4]: 0.049 A450 | A450 [5]: 0.057 A450 | A450 [6]: 0.049 A450 | A450 [7]: 0.053 A450
